Publication PMC8367818, “The Taxus genome provides insights into paclitaxel biosynthesis” (Nature Plants, 2021)

B1: TS2 (Taxus chinensis) (protein)
chain: SGSPTKLATENANAVAESNLIPRLSANYHGDLWHHGVIQTLQTPYQESSSYQERAEELIVKIKDMFKAVEEGAISPSAYDTAWVARVPDGSEKPRFPQALNWLLHNQLQDGSWGLESHFMLSDRLLSTLNSVISLLVWKTGQQQVEQGTLFITENLKLLEGEDELPPDFEIIFPALLQKAKALGMSLPDHDLPFIKSLSVAREARLASYTDNNIPASMLNALEGLEEVIDWDKIMRFQMPCLYSIDLLERLSLVDNIEHLGIGRHFKQEIKVALDYVYRYWSERGIGLGRDSLIPDLNTTALGLRTLRAHGYNVSSEVLNNFKDENGRFFSSLGQTHVELRSMVNLLRASDLAFPDEPLMDDAKIFAEAYLRDALATRISTNTKLFKEIDYAVEYPWHMSIPRLEARSYIDVYDDDYTWQNKTLYRMSNLSNAYCLELAKLDFNIVQSLHQEELKLLTRWWKESGMADINFTRHRVAEVYFSSATFEPEYSSTRIAFTKIGCLQVLFDDMADIFATLDELRDFTEGVKRWDTSLIHKLPDCMQTCFRVWFNLMEEVNNDVSNVQGRDMLNHIRKPWELYFNCYVQEREWLDAGYIPTLEEYLKTYSISVGLGPCTLQPILLMGDIVKDDVVEKVHYPSNLFELVSLSWRLTNDTKTYQAEKARGQQASGIACYMKDNPGSTEEDAIKYICGVVDRALKEACFEYFKPADDVPMSCKSFIFNLRLCVQIFYKFIDGYGIANEEIKDYIRKVYIEPIQV
notes: 60-residue N-terminal (plastid transit) truncation, His-tagged, pET28b, E. coli, purified
B2: TS1 (Taxus chinensis) (protein)
chain: MSSSTGTSKVVSETSSTIVDDIPRLSANYHGDLWHHNVIQTLETPFRESSTYQERADELVVKIKDMFNALGDGDISPSAYDTAWVARVATISSDGSEKPRFPQALNWVLNNQLQDGSWGIESHFSLCDRLLNTINSVIALSVWKTGHSQVEQGTEFIAENLRLLNEEDELSPDFEIIFPALLQKAKSLGINLPYDLPFIKYLSTTREARLTDVSAAADNIPANMLNALEGLEEVIDWKKIMRFQSKDGSFLSSPASTACVLMNTGDEKCFTFLNNLLDKFGGCVPCMYSIDLLERLSLVDNIEHLGIGRHFKQEIKVALDYVYRHWSERGIGWGRDSLVPDLNTTALGLRTLRTHGYDVSSDVLNNFKDENGRFFSSAGQTHVELRSVVNLFRASDLAFPDEGAMDDARKFAEPYLRDALATKISTNTKLFKEIEYVVEYPWHMSIPRLEARSYIDSYDDDYVWERKTLYRMPSLSNSKCLELAKLDFNIVQSLHQEELKLLTRWWKESGMADINFTRHRVAEVYFSSATFEPEYSATRIAFTKIGCLQVLFDDMADIFATLDELKSFTEGVKRWDTSLLHEIPECMQTCFKVWFKLMEEVNNDVVKVQGRDMLAHIRKPWELYFNCYVQEREWLDAGYIPTFEEYLKTYAISVGLGPCTLQPILLMGELVKDDVVEKVHYPSNMFELVSLSWRLTNDTKTYQAEKARGQQASGIACYMKDNPGATEEDAIKHICRVVDRALKEASFEYFKPSNDIPMGCKSFIFNLRLCVQIFYKFIDGYGIANEEIKDYIRKVYIDPIQV
notes: as for B1

Substrate: CC(C)=CCC/C(C)=C/CC/C(C)=C/CC/C(C)=C/COP(=O)(O)OP(=O)(O)O
Test: purified protein
Format: biochemical, Taxus chinensis
Details: 1 mM MgCl2, 25 mM HEPES pH 8.5, 10% glycerol, 5 mM DTT, 32 °C, 30 min, GGPP spiked with [1-3H]-GGPP

Row | Protein | Km [µM] | kcat [s⁻¹]
1 | B1 | 8.6 ± 1.5 | 3280
2 | B2 | 5.5 ± 1.6 | 1705
